One may read the Kd as a measure of binding affinity in units of concentration. A lower Kd goes with tighter binding.

For assay [1], the target named is human IL-21R (human) (UniProt Q9HBE5). Briefly: AlphaSeq yeast mating assay, pH 6 media.
Assay [2] shares this target. Briefly: AlphaSeq yeast mating assay, pH 5 media.
The target is the same in assay [3]. Briefly: AlphaSeq yeast mating assay, pH 7 media.

Regarding “IL-21_V57H (from UniProt Q9HBE4 32-152) (ligand)”, the results for the Kd with human IL-21R (human) [1] and with human IL-21R (human) [2] were 0.024 µM and 1.6 µM, respectively.
Take “IL-21_I95P (from UniProt Q9HBE4 32-152) (ligand)”: the dissociation constant (Kd) with human IL-21R (human) [1] turned out to be 3.6 µM; with human IL-21R (human) [2] it was 64 µM.
In the case of “IL-21_Q41P (from UniProt Q9HBE4 32-152) (ligand)”, the dissociation constant (Kd) with human IL-21R (human) [1] turned out to be 35 µM.
In the assay with human IL-21R (human) [1], “IL-21_L42G (from UniProt Q9HBE4 32-152) (ligand)” showed a Kd of 32 µM.
The same measure, in the same setting: then “IL-21_V46N (from UniProt Q9HBE4 32-152) (ligand)”, with 37 µM.
Consider “IL-21_L42N (from UniProt Q9HBE4 32-152) (ligand)”, for which the dissociation constant Kd in the assay with human IL-21R (human) [1] is 26 µM; in the assay with human IL-21R (human) [3], 0.95 µM.
In the assay with human IL-21R (human) [1], “IL-21_I96G (from UniProt Q9HBE4 32-152) (ligand)” returned a Kd of 52 µM.
The substance “IL-21_P108Q (from UniProt Q9HBE4 32-152) (ligand)” returned a dissociation constant (Kd) with human IL-21R (human) [3] of 0.11 µM.
“IL-21_V98R (from UniProt Q9HBE4 32-152) (ligand)” returned a Kd in the assay with human IL-21R (human) [2] of 0.046 µM.
“IL-21_D33P (from UniProt Q9HBE4 32-152) (ligand)” yielded a Kd in the assay with human IL-21R (human) [2] of 40 µM.
In the case of “IL-21_N70A (from UniProt Q9HBE4 32-152) (ligand)”, the Kd was 0.033 µM with human IL-21R (human) [2] and 0.094 µM with human IL-21R (human) [3].
On to “IL-21_W73N (from UniProt Q9HBE4 32-152) (ligand)”, for which the Kd is 3.4 µM with human IL-21R (human) [1] and 65 µM with human IL-21R (human) [2].
“IL-21_K104G (from UniProt Q9HBE4 32-152) (ligand)” gave an equilibrium dissociation constant (Kd) with human IL-21R (human) [1] of 0.079 µM.
Same read-out and setting: the value for “IL-21_I100E (from UniProt Q9HBE4 32-152) (ligand)” was 78 µM.
“IL-21_R34N (from UniProt Q9HBE4 32-152) (ligand)”: the Kd in the assay with human IL-21R (human) [1] is 0.052 µM; in the assay with human IL-21R (human) [2], 0.96 µM.
Substance “IL-21_K106S (from UniProt Q9HBE4 32-152) (ligand)” showed a dissociation constant (Kd) with human IL-21R (human) [2] of 7.3 µM.
“IL-21_E72L (from UniProt Q9HBE4 32-152) (ligand)”: the dissociation constant Kd with human IL-21R (human) [2] worked out at 0.047 µM; in the assay with human IL-21R (human) [3] it was 0.16 µM.
“IL-21_I96T (from UniProt Q9HBE4 32-152) (ligand)” registered a Kd with human IL-21R (human) [1] of 66 µM.
For “IL-21_M39Q (from UniProt Q9HBE4 32-152) (ligand)”, the Kd with human IL-21R (human) [1] turned out to be 83 µM.
Take “IL-21_Q48K (from UniProt Q9HBE4 32-152) (ligand)”: the values for the dissociation constant Kd in the assay with human IL-21R (human) [1] and with human IL-21R (human) [2] were 0.2 µM and 11 µM, respectively.
The substance “IL-21_R38A (from UniProt Q9HBE4 32-152) (ligand)” returned a Kd with human IL-21R (human) [2] of 15 µM.
For the substance “IL-21_I43S (from UniProt Q9HBE4 32-152) (ligand)”, the Kd is 1.1 µM in the assay with human IL-21R (human) [1] and 43 µM in the assay with human IL-21R (human) [2].
In the assay with human IL-21R (human) [2], “IL-21_L49N (from UniProt Q9HBE4 32-152) (ligand)” returned a Kd of 170 µM.
Consider “IL-21_I45D (from UniProt Q9HBE4 32-152) (ligand)”, for which the Kd with human IL-21R (human) [1] worked out at 0.19 µM; with human IL-21R (human) [2] it was 20 µM.
For the substance “IL-21_L42R (from UniProt Q9HBE4 32-152) (ligand)”, the equilibrium dissociation constant (Kd) with human IL-21R (human) [2] was 150 µM.
Take “IL-21_V57T (from UniProt Q9HBE4 32-152) (ligand)”: the values for the Kd in the assay with human IL-21R (human) [2] and with human IL-21R (human) [3] were 0.17 µM and 0.078 µM, respectively.
“IL-21_V57P (from UniProt Q9HBE4 32-152) (ligand)” had a dissociation constant (Kd) with human IL-21R (human) [3] of 3 µM.
Turning to “IL-21_W73S (from UniProt Q9HBE4 32-152) (ligand)”, the dissociation constant (Kd) amounted to 39 µM in the assay with human IL-21R (human) [2] and 0.34 µM in the assay with human IL-21R (human) [3].
In the case of “IL-21_F76P (from UniProt Q9HBE4 32-152) (ligand)”, the figures for the Kd with human IL-21R (human) [1] and in the assay with human IL-21R (human) [2] were 41 µM and 250 µM, respectively.
For “IL-21_P108G (from UniProt Q9HBE4 32-152) (ligand)”, in the assay with human IL-21R (human) [2], the equilibrium dissociation constant (Kd) was 11 µM.
As to “IL-21_I45H (from UniProt Q9HBE4 32-152) (ligand)”, the dissociation constant Kd in the assay with human IL-21R (human) [1] stood at 6.2 µM.
As to “IL-21_D33R (from UniProt Q9HBE4 32-152) (ligand)”, the dissociation constant (Kd) is 26 µM in the assay with human IL-21R (human) [2] and 0.14 µM in the assay with human IL-21R (human) [3].
Take “IL-21_L61H (from UniProt Q9HBE4 32-152) (ligand)”: the results for the equilibrium dissociation constant (Kd) in the assay with human IL-21R (human) [2] and with human IL-21R (human) [3] were 0.12 µM and 0.024 µM, respectively.
Regarding “IL-21_L49H (from UniProt Q9HBE4 32-152) (ligand)”, in the assay with human IL-21R (human) [2], the Kd turned out to be 160 µM.
Still for that read-out and setting: the value for “IL-21_I45P (from UniProt Q9HBE4 32-152) (ligand)” was 100 µM.
With “IL-21_L56S (from UniProt Q9HBE4 32-152) (ligand)”, the Kd turned out to be 46 µM with human IL-21R (human) [1] and 44 µM with human IL-21R (human) [3].
For “IL-21_V53Q (from UniProt Q9HBE4 32-152) (ligand)”, in that order: 0.16 µM and 0.2 µM.
On to “IL-21_P132A (from UniProt Q9HBE4 32-152) (ligand)”, for which the dissociation constant Kd in the assay with human IL-21R (human) [1] was determined as 0.024 µM; in the assay with human IL-21R (human) [3], 0.12 µM.
For “IL-21_I45Y (from UniProt Q9HBE4 32-152) (ligand)”, in the assay with human IL-21R (human) [1], the equilibrium dissociation constant (Kd) is 12 µM.
Turning to “IL-21_R34A (from UniProt Q9HBE4 32-152) (ligand)”, in the assay with human IL-21R (human) [2], the Kd came to 0.36 µM.
Regarding “IL-21_F76Q (from UniProt Q9HBE4 32-152) (ligand)”, the dissociation constant (Kd) with human IL-21R (human) [1] amounted to 50 µM; with human IL-21R (human) [3] it was 63 µM.
The substance “IL-21_I43P (from UniProt Q9HBE4 32-152) (ligand)” displayed a Kd with human IL-21R (human) [2] of 330 µM.
Same read-out and setting: then “IL-21_R105D (from UniProt Q9HBE4 32-152) (ligand)”, with 170 µM.
For “IL-21_I45N (from UniProt Q9HBE4 32-152) (ligand)”, the Kd with human IL-21R (human) [3] was 1 µM.
Take “IL-21_F76D (from UniProt Q9HBE4 32-152) (ligand)”: in the assay with human IL-21R (human) [1], the Kd is 55 µM.
For “IL-21_F79P (from UniProt Q9HBE4 32-152) (ligand)”, the dissociation constant (Kd) worked out at 7.8 µM with human IL-21R (human) [1] and 3.3 µM in the assay with human IL-21R (human) [3].
“IL-21_L42E (from UniProt Q9HBE4 32-152) (ligand)” had a Kd with human IL-21R (human) [3] of 26 µM.
Take “IL-21_L42D (from UniProt Q9HBE4 32-152) (ligand)”: the Kd with human IL-21R (human) [1] turned out to be 14 µM; in the assay with human IL-21R (human) [2], 1600 µM.
For “IL-21_I37R (from UniProt Q9HBE4 32-152) (ligand)”, the figures for the equilibrium dissociation constant (Kd) with human IL-21R (human) [1] and with human IL-21R (human) [3] were 0.17 µM and 0.2 µM, respectively.
“IL-21_Q80A (from UniProt Q9HBE4 32-152) (ligand)” gave a Kd in the assay with human IL-21R (human) [1] of 12 µM.
For “IL-21_L49P (from UniProt Q9HBE4 32-152) (ligand)”, the dissociation constant (Kd) with human IL-21R (human) [1] came to 55 µM; with human IL-21R (human) [2] it was 330 µM.
Turning to “IL-21_R38M (from UniProt Q9HBE4 32-152) (ligand)”, the Kd with human IL-21R (human) [1] turned out to be 1.2 µM; with human IL-21R (human) [3], 2 µM.
As to “IL-21_L42S (from UniProt Q9HBE4 32-152) (ligand)”, in the assay with human IL-21R (human) [3], the equilibrium dissociation constant (Kd) was determined as 11 µM.
As for “IL-21_L49S (from UniProt Q9HBE4 32-152) (ligand)”, in the assay with human IL-21R (human) [2], the equilibrium dissociation constant (Kd) was determined as 240 µM.
In the assay with human IL-21R (human) [1], “IL-21_F79K (from UniProt Q9HBE4 32-152) (ligand)” registered a Kd of 5.5 µM.
As to “IL-21_D44G (from UniProt Q9HBE4 32-152) (ligand)”, the figures for the Kd with human IL-21R (human) [1] and with human IL-21R (human) [3] were 0.05 µM and 0.2 µM, respectively.
For the substance “IL-21_W73V (from UniProt Q9HBE4 32-152) (ligand)”, the dissociation constant Kd in the assay with human IL-21R (human) [1] worked out at 6.5 µM; in the assay with human IL-21R (human) [2], 110 µM.
In the case of “IL-21_V57Y (from UniProt Q9HBE4 32-152) (ligand)”, the results for the Kd with human IL-21R (human) [1] and in the assay with human IL-21R (human) [2] were 0.016 µM and 0.046 µM, respectively.

(Values after US12281147.)
